The source of these data is US20240230671A9, “COMPOSITIONS AND METHODS FOR IDENTIFICATION OF CROSS-REACTIVE ALLERGENIC PROTEINS AND TREATMENT OF ALLERGIES” (Alladapt Immunotherapeutics, Inc., priority 2021, published 2024).

The test system of one assay is dendritic cells. The experiment in a line: Mouse study: CD4+ T cells from peptide-dosed mice incubated with antigen-loaded dendritic cells. To be noted: 50 ug peptide orally for 4 weeks; tetanus toxoid as control. Format: cell-based. Here is the method: Mouse Study: A composition comprising 50 ug of the cross-reactive peptide comprising the MHC-II-binding T-cell epitope 5′-[…]-3′ and a pharmaceutical acceptable carrier is administered orally to mice for 4 weeks. Two weeks after the last dose, blood is drawn from a peripheral vein and CD4+ T cells are purified by cell sorting on magnetic beads. CD4+ T-cells are added to culture medium in which histocompatible dendritic cells, used as antigen presenting cells, are incubated with either the peptide sequence or with tetanus toxoid as a control for 2 hr at room temperature. The cells are then washed and purified CD4+ T-cells are added to culture medium. […] Incubation of CD4+ T-cells with dendritic cells loaded with the hazelnut Cor_i_9 antigen results in dendritic cell apoptosis.

Assay [1] is described as follows: Single allergen subcutaneous immunotherapy in walnut and hazelnut allergic subjects. In kind it is in vivo.
For the next assay, the system named is IgE. The experiment in a line: ALEX2 chip ELISA-based multiplex assay for IgE binding to allergens. Also noted: species or system human. An excerpt: In another example, forty-two human serum samples with self-reported clinical allergies were obtained and analyzed in triplicate on an ALEX2 chip (developed by Macro Array Diagnostics), which enables an ELISA-based multiplex assay for the detection of IgE adsorption to allergen components and extracts. […] The assay detects the binding of IgE to these allergens in an ELISA-based multiplex fashion. The dynamic range of the chip spans a little over two orders of magnitude, 0.3-50 kUA/L.
Background: ELISA stands for enzyme-linked immunosorbent assay.

On to HWNLNAHSVVYALRG, for which the “apoptosis of antigen-presenting dendritic cells by CD4+ T cells” value with dendritic cells is “induce apoptosis of dendritic cells presenting the Cor_i_9 antigen”. Further, the “allergic reaction after immunotherapy” value in assay [1] is “fail to react to both walnuts and hazelnuts”.

B1: Derp: European house dust mite allergen, Tropomyosin family, on ALEX2 chip (protein, UniProt O18416 1-284, looked up)
Tropomyosin: MEAIKNKMQAMKLEKDNAIDRAEIAEQKARDANLRAEKSEEEVRALQKKIQQIENELDQVQEQLSAANTKLEEKEKALQTAEGDVAALNRRIQLIEEDLERSEERLKIATAKLEEASQSADESERMRKMLEHRSITDEERMEGLENQLKEARMMAEDADRKYDEVARKLAMVEADLERAEERAETGESKIVELEEELRVVGNNLKSLEVSEEKAQQREEAHEQQIRIMTTKLKEAEARAEFAERSVQKLQKEVGRLEDELVHEKEKYKSISDELDQTFAELTGY
modifications: tropomyosin
notes: European house dust mite allergen, Tropomyosin family, on ALEX2 chip
With B1, the “Pearson Correlation coefficient based on ALEX data” value in the assay on IgE (Tropomyosin family, correlation of IgE levels with Penm1) came to 0.99.

B2: Mal d 1: Apple allergen, Bet v 1 family, on ALEX2 chip (protein, UniProt P43211 2-159, looked up)
Major allergen Mal d 1: GVYTFENEFTSEIPPSRLFKAFVLDADNLIPKIAPQAIKQAEILEGNGGPGTIKKITFGEGSQYGYVKHRIDSIDEASYSYSYTLIEGDALTDTIEKISYETKLVACGSGSTIKSISHYHTKGNIEIKEEHVKVGKEKAHGLFKLIESYLKDHPDAYN
In the case of B2, the “Pearson Correlation coefficient based on ALEX data” value in the assay with IgE (Bet v 1 family, correlation of IgE levels with Bet v 1, 22 Bet v 1-positive human serum samples) is listed as 0.62.

B3: Bet v 1: Silver birch allergen, Bet v 1 family, recombinant allergen on ALEX2 chip (protein)
chain: GVFNYETETTSVIPAARLFKAFILDGDNLFPKVAPQAISSVENIEGNGGPGTIKKISFPEGFPFKYVKDRVDEVDHTNFKYNYSVIEGGPIGDTLEKISNEIKIVATPDGGSILKISNKYHTKGDHEVKAEQVKASKEMGETLLRAVESYLLAHSDAYN
Take B3: the “samples with a positive value for the allergen” value in the assay with IgE (of forty two human serum samples run on the ALEX2 chip) is 22 samples.
